In US20090162366A1 (KIRIN PHARMA, published 2009):

Columns and labels:
[1] = target: T1, M2 expressed on MDCK cells infected with influenza A/PR/8/34 (influenza A virus A/PR/8/34, UniProt P06821 1-97); experiment: cell ELISA, A/PR/8/34-infected MDCK, Ab 1 µg/ml, competitor M2 peptide 20 µg/ml
T1 construct: whole, on cells

[2] = target: T1, M2 expressed on MDCK cells infected …; experiment: cell ELISA on infected MDCK cells
[3] = target: T1, M2 expressed on MDCK cells infected …; experiment: cell ELISA, A/PR/8/34-infected MDCK
[4] = target: T1, M2 expressed on MDCK cells infected …; experiment: cell ELISA, A/PR/8/34-infected MDCK, Ab 1 µg/ml, no peptide

T1 sequence (P06821 whole entry): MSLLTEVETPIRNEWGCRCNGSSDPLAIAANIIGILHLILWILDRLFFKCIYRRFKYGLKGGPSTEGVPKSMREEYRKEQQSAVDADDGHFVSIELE

| Binder | OD450 with competitor [1] [OD450] | EC50 [2] [µg/mL] | fold greater reactivity than F1 and F2 [3] [fold] | OD450 [4] [OD450] |
| --- | --- | --- | --- | --- |
| C40G1 (antibody, V domains shown) VH: QLQLQESGPGLVKPSETLSLTCTVSGGSISSSFYYCGWIRQPPGKGLEWIGSIYYRGSTYYNPSLKSRVTISVDTSKNQFSLKLSSVTAADTAVYYCARRVTMVRGVKGDYFDYWGQGTLVTVSS VL: DIQMTQSPSSLSASVGDRVTITCRASQGISSWLAWYQQKPEKVPKSLIYAASSLQSGVPSRFSGSGSGTDFTLTISSLQPEDFATYYCQQYNYYPLTFGGGTKVEIKR | 0.195 | 0.183 | > 100 | 0.799 |
| C40G4 (antibody, V domains shown) VH: QLQLQESGPGLVKPSETLSLTCTVSGGSISSSFYYCGWIRQPPGKGLEWIGSIYYRGSTYYNPSLKSRVTISVDTSKNQFSLKLSSVTAADTAVYYCARRVTMVRGVKGDYFDYWGQGTLVTVSS VL: DIQMTQSPSSLSASVGDRVTITCRASQGISSWLAWYQQKPEKVPKSLIYAASSLQSGVPSRFSGSGSGTDFTLTISSLQPEDFATYYCQQYNYYPLTFGGGTKVEIKR |  | 0.301 |  |  |
| L66 (antibody, V domains shown) VH: EVQLVESGGGVVRPGGSLRLSCAASGFTFDDYGMSWVRQAPGKGLEWVSGINWNGGSTGYADSVKGRFTISRDNAKNSLYLQMNSLRAEDTALYYCARDRVTMVRGVIMDYYGMDVWGQGTTVTVSS VL: QTVVTQEPSLTVSPRGTVTLTCSSSTGAVTSGYYPGWFQLKPGQAPMSLIYSARKKHSWTPARFSGSLLGGKAALTLSGVQPEDEAEYYCLLYYGGAYVFGTGTKVTVLG | 0.113 | 0.117 | > 100 | 0.931 |
| N547 (antibody, V domains shown) VH: not shown VL: QSVLTQPPSMSAAPGQKVTISCSGSSSNIGNNYISWYQQLPGTAPKVLIYDNNKRPSGIPDRFSGSKSGTSATLGITGLQTGDEADYYCGSWDSSLSAGVFGTGTKVTVLG | 0.062 | 0.104 | > 100 | 0.504 |
